Assay results published in US20250011397A1 (HOSPITAL FOR SICK CHILDREN, published 2025).
Where two headings read alike, the source gives them in different places.

Legend:
[1] = biological target: T1, SARS-CoV-2 receptor binding domain (RBD), wild type, His-tagged (BEI NR52309) (SARS-CoV-2, UniProt P0DTC2 319-541)
T1 construct: also called WT RBD

[2] = biological target: T1, SARS-CoV-2 receptor binding domain …; remark: listed apart in the source
[3] = biological target: T1, SARS-CoV-2 receptor binding domain …; remark: listed apart in the source
[4] = biological target: T1, SARS-CoV-2 receptor binding domain …; remark: listed apart in the source
[5] = biological target: T1, SARS-CoV-2 receptor binding domain …; assay: RBD KD column; method and antibody format not stated
[6] = biological target: T1, SARS-CoV-2 receptor binding domain …; assay: as above; remark: listed apart in the source
[7] = biological target: T2, SARS-CoV-2 Spike, prefusion S ectodomain (BEI NR52394), His-tagged (SARS-CoV-2, UniProt P0DTC2 14-1213); assay: BLI, His-tagged Spike on Ni-NTA biosensors, 1:1 fit
T2 construct: extracellular domain; also called S protein; S glycoprotein

Binder | RBD binding [1] | RBD binding [2] | RBD binding [3] | RBD binding [4] | Kd [5] | Kd [6] | Kd [7] | koff [7] | kon [7]
mAb 52 (antibody, V domains shown, also called IgG 52; antibody 52) VH: QVQLVQSGAEVKKPGSSVKVSCKASGYTFTSYGISWVRQAPGQGLEWMGGIIPMFGTTNYAQKFQGRVTITADKSTSTAYMELSSLRSEDTAVYYCARDRGDTIDYWGQGTLVTVSS VL: DIQMTQSPSSLSASVGDRVTITCRASQGISNNLNWYQQKPGKAPKLLIYAASSLESGVPSRFSGSGSGTDFTLTISSLQPEDFATYYCQQGNGFPLTFGPGTKVDIKR | 0.5 | 0.4 | 1.3 | 0.8 |  |  |  |  | 
mAb 160 (antibody, V domains shown, also called IgG 160) VH: QVQLVQSGAEVKKPGASVKVSCKASGYTFTGHDMHWVRQAPGQGLEWMGIINPSGGSTSYAQKFQGRVTMTRDTSTSTVYMELSSLRSEDTAVYYCARANSLRYYYGMDVWGQGTMVTVSS VL: DIQMTQSPSSLSASVGDRVTITCRASQSVSSWLAWYQQKPGKAPKLLIYAASSLQSGVPSRFSGSGSGTDFTLTISSLQPEDFATYYCQQGYTTPYTFGQGTKLEIKR |  |  |  |  | 7.7 nM | 7.7 nM |  |  | 
mAb 46 (antibody, V domains shown, also called IgG 46; antibody 46) VH: EVQLLESGGGLVQPGRSLRLSCAASGFTFSSYAMSWVRQAPGKGLEWVSTIYSGGSTYYADSVKGRFTISRDNSKNTLYLQMNSLRAEDTAVYYCARGDSRDAFDIWGQGTMVTVSS VL: DIQMTQSPSSLSASVGDRVTITCRASQSISSWLAWYQQKPGKAPKLLIYDASNLETGVPSRFSGSGSGTDFTLTISSLQPEDFATYYCQQSYSTPFTFGPGTKVDIKR | 0.2 | 0.2 | 1.3 | 1.2 | 83 nM | 83 nM |  |  | 
mAb 56 (antibody, V domains shown, also called IgG 56) VH: QVQLVQSGAEVKKPGASVKVSCKASGYTFTSYGISWVRQAPGQGLEWMGWISAYNGNTNYAQKLQGRVTMTRDTSTSTVYMELSSLRSEDTAVYYCARDIGPIDYWGQGTLVTVSS VL: DIQMTQSPSSLSASVGDRVTITCRASQGISSYLAWYQQKPGKAPKLLIYDASNLQSGVPSRFSGSGSGTDFTLTISSLQPEDFATYYCQQANSFPSTFGQGTKVEIKR |  |  |  |  | 23 nM | 23 nM |  |  | 
mAb 108 (antibody, V domains shown) VH: QVQLVQSGAEVKKPGASVKVSCKASGYIFSRYAIHWVRQAPGQGLEWMGWMNPISGNTDYAPNFQGRVTMTRDTSTSTVYMELSSLRSEDTAVYYCAKDGSQLAYLVEYFQHWGQGTLVTVSS VL: DIQMTQSPSSLSASVGDRVTITCRASQVITNNLAWYQQKPGKAPKLLIYDASTLETGVPSRFSGSGSGTDFTLTISSLQPEDFATYYCQQSYTFPYTFGQGTKVEIKR |  |  |  |  | 72 nM | 72 nM |  |  | 
mAb 324 (antibody, V domains shown, also called IgG 324) VH: QVQLVQSGAEVKKPGASVKVSCKASGGTFNNYGISWVRQAPGQGLEWMGWMNPNSGNTGYAQKFQGRVTMTRDTSTSTVYMELSSLRSEDTAVYYCARVGDYGDYIVSPFDLWGRGTLVTVSS VL: DIQMTQSPSSLSASVGDRVTITCRASQSITTYLNWYQQKPGKAPKLLIYDASNLETGVPSRFSGSGSGTDFTLTISSLQPEDFATYYCQQSYSTPPTFGQGTKVEIKR | 1.2 | 1 | 0.1 | 0.2 | 111 nM | 111 nM |  |  | 
mAb 349 (antibody, V domains shown, also called IgG 349) VH: EVQLLESGGGLVQPGGSLRLSCAASGFTFSNYGMHWVRQAPGKGLEWVSGISSAGSITNYADSVKGRFTISRDNSKNTLYLQMNSLRAEDTAVYYCAGNHAGTTVTSEYFQHWGQGTLVTVSS VL: DIQMTQSPSSLSASVGDRVTITCRASQSISSWLAWYQQKPGKAPKLLIYDTSNLETGVPSRFSGSGSGTDFTLTISSLQPEDFATYYCQQSYTTPWTFGQGTRLEIKR |  |  |  |  | 74 nM | 74 nM |  |  | 
mAb 158 (antibody, V domains shown, also called IgG 158) VH: QVQLVQSGAEVKKPGASVKVSCKASGYTFTGYYMHWVRQAPGQGLEWMGWINPLNGGTNFAPKFQGRVTMTRDTSTSTVYMELSSLRSEDTAVYYCARDPGGSYSNDAFDIWGQGTLVTVSS VL: DIQMTQSPSSLSASVGDRVTITCRASQSISRYLNWYQQKPGKAPKLLIYDASNLESGVPSRFSGSGSGTDFTLTISSLQPEDFATYYCQQANSFPLTFGGGTKVDIKR |  |  |  |  | 172 nM | 172 nM |  |  | 
mAb 64 (antibody, V domains shown, also called IgG 64) VH: EVQLLESGGGLVQPGGSLRLSCAASGFPFSQHGMHWVRQAPGKGLEWVSAIDRSGSYIYYADSVKGRFTISRDNSKNTLYLQMNSLRAEDTAVYYCARDTYGGKVTYFDYWGQGTLVTVSS VL: DIQMTQSPSSLSASVGDRVTITCRASQGISSHLAWYQQKPGKAPKLLIYDASNLETGVPSRFSGSGSGTDFTLTISSLQPEDFATYYCQQTYSTPWTFGQGTKVEIKR |  |  |  |  | 97 nM | 97 nM |  |  | 
mAb 82 (antibody, V domains shown, also called IgG 82) VH: QVQLVQSGAEVKKPGASVKVSCKASGGSFSTSAFYWVRQAPGQGLEWMGWINPYTGGTNYAQKFQGRVTMTRDTSTSTVYMELSSLRSEDTAVYYCARSRALYGSGSYFDYWGQGTLVTVSS VL: DIQMTQSPSSLSASVGDRVTITCRASQVISNYLAWYQQKPGKAPKLLIYDASNLETGVPSRFSGSGSGTDFTLTISSLQPEDFATYYCQQSFSPPPTFGQGTRLEIKR | 1.4 | 0.6 | 0.6 | 0.4 | 206 nM | 206 nM |  |  | 
mAb 236 (antibody, V domains shown, also called IgG 236) VH: QVQLVQSGAEVKKPGASVKVSCKASGGTFTSYGINWVRQAPGQGLEWMGWMNPNSGNTGYAQKFQGRVTMTRDTSTSTVYMELSSLRSEDTAVYYCASRGIQLLPRGMDVWGQGTTVTVSS VL: not shown | 1.2 | 1 | 0.1 | 0.2 | 145 nM | 145 nM |  |  | 
mAb 178 (antibody, V domains shown, also called IgG 178) VH: QVQLVQSGAEVKKPGASVKVSCKASGYTFTDYHMHWVRQAPGQGLEWMGWINPNSGGTNYAQKFQGRVTMTRDTSTSTVYMELSSLRSEDTAVYYCARDISSWYEITKFDPWGQGTLVTVSS VL: EIVMTQSPATLSVSPGERATLSCKASQSVSGTYLAWYQQKPGQAPRLLIYGASTRATGIPARFSGSGSGTEFTLTISSLQSEDFAVYYCLQTHSYPPTFGQGTKVEIKR |  |  |  |  | 72 nM | 72 nM |  |  | 
mAb 120 (antibody, V domains shown, also called IgG 120) VH: QVQLVQSGAEVKKPGASVKVSCKASGYTFTSYDINWVRQAPGQGLEWMGMIDPSGGSTSYAQKFQGRVTMTRDTSTSTVYMELSSLRSEDTAVYYCAKDFGGGTRYDYWYFDLWGRGTLVTVSS VL: EIVMTQSPATLSVSPGERATLSCRASQSVSSRYLAWYQQKPGQAPRLLIYGASTRATGIPARFSGSGSGTEFTLTISSLQSEDFAVYYCQQYYTTPRTFGQGTRLEIKR |  |  |  |  | 24 nM | 24 nM |  |  | 
4A8 IgG (antibody, V domains shown, also called IgG 4A8) VH: EVQLVESGAEVKKPGASVKVSCKVSGYTLTELSMHWVRQAPGKGLEWMGGFDPEDGETMYAQKFQGRVTMTEDTSTDTAYMELSSLRSEDTAVYYCATSTAVAGTPDLFDYYYGMDVWGQGTTVTVSS VL: EIVMTQSPLSSPVTLGQPASISCRSSQSLVHSDGNTYLSWLQQRPGQPPRLLIYKISNRFSGVPDRFSGSGAGTDFTLKISRVEAEDVGVYYCTQATQFPYTFGQGTKVDIK |  |  |  |  |  |  | 1.42 nM | 0.000191 s⁻¹ | 133000 M⁻¹ s⁻¹
mAb 254 (antibody, V domains shown, also called IgG 254) VH: EVQLLESGGGLVQPGGSLRLSCAASGFTFSSSAMHWVRQAPGKGLEWVSAIGTGGDTYYADSVKGRFTISRDNSKNTLYLQMNSLRAEDTAVYYCAREGDGYNFYFDYWGQGTLVTVSS VL: DIQMTQSPSSLSASVGDRVTITCRASQGISSYLAWYQQKPGKAPKLLIYDASSLQIGVPSRFSGSGSGTDFTLTISSLQPEDFATYYCLQSYSTPPWTFGQGTKVEIKR |  |  |  |  | 127 nM | 127 nM |  |  | 
mAb 128 (antibody, V domains shown) VH: QVQLVQSGAEVKKPGASVKVSCKASGYTFTHYYMHWVRQAPGQGLEWMGIINPSSSSASYSQKFQGRVTMTRDTSTSTVYMELSSLRSEDTAVYYCARDGRYGSGSYPFDYWGQGTLVTVSS VL: DIQMTQSPSSLSASVGDRVTITCRASQNISRYLNWYQQKPGKAPKLLIYDASNLETGVPSRFSGSGSGTDFTLTISSLQPEDFATYYCQQANGFPPTFGQGTKLEIKR |  |  |  |  | 57 nM | 57 nM |  |  | 
